# Experimental data published in US20190135868.
# What was measured:
# RTD913 SMCC (synthetic) = test system: T1, RTD913 SMCC (synthetic); test: EMSA; details: stable complex formation, somewhat unstable binding; text p911 gives ~50-100 nM
# T1 sequence 1: KRAHHNALERXRRDXIKDS
# T1 sequence 2: KRRTHNXLERXRRNELKRS
# [1] = test system: T2, RTD84 (stapled sDBD) (synthetic); test: EMSA; details: text p911 gives EC50 ~50-100 nM
# T2 sequence 1: KRXHHNXLERKRRDHIKDS
# T2 sequence 2: KRRTHNXLERXRRNELKRS
sequence,measurement,setting,value
CACGTG (double strand) [E-box probe (E1)],EC50,RTD913 SMCC (synthetic),20 nM
same,Kd,[1],50 nM
